Laboratory results published in patent US20210238279A1 (Johns Hopkins, published 2021).
Residue numbers refer to the chain shown, from its start.

Tests used:
Assay in all cases: immunoblot of HEK293 lysates over-expressing FLAG-tagged ZnT homologs
[1] = biological target: T1, human ZnT2 with C-terminal FLAG tag (human, UniProt Q9BRI3 1-372, limits assumed)
T1 construct: Commercial HEK293 lysate (Origene), SDS-denatured on immunoblots; not shown: C-terminal FLAG octapeptide
T1 sequence (looked up): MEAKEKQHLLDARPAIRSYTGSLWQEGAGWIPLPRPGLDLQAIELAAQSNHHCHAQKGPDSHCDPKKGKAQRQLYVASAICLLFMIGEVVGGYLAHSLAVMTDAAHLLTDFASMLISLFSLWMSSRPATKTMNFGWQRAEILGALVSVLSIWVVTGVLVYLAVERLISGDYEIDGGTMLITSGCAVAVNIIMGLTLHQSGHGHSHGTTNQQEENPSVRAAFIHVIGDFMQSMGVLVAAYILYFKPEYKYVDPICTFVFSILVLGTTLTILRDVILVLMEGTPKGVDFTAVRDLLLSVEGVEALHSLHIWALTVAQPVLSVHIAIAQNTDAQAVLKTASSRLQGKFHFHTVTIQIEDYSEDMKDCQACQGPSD
Text: (§1) FIG. 7A-7D. mAb binding specificities (FIG. 7A) mAb binding to ZnT8-His immobilized to Ni-NTA plate. Bound mAb20 (red) or mAb39 (magenta) was detected by an HRP-conjugated secondary antibody. Solid lines are least-squares fits of binding datapoints to a one-component binding process. Error bars are standard errors (n=8). (FIG. 7B) SDS-denatured mouse ZnT8-His (labeled as M) and human ZnT8-His (labeled as H) on immunoblots were detected by mAb20 or mAb39 as indicated. […] (FIG. 7C) Detection of endogenous human ZnT8 in EndoC-βH cells by mAb20 or […] immunoblotting. An equal amount of EndoC-βH lysate (5 μg total protein) was loaded to each lane. (FIG. 7D) Immunoblotting of HEK lysates with or with over-expression of a ZnT homolog as indicated. An approximately equal amount of total lysate protein (5 μg) was located to each lane, probed by either mAb20, mAb39, or anti-FALG antibody as indicated. FIG. 8. HTRF response to human ZnT8, mouse ZnT8 and human ZnT3.
(§2) Immunoblotting. SDS-solubilized cell lysate of EndoC-β cells or HEK293 cells over-expressing ZnT8 was subjected to SDS-PAGE and probed with a 1:3000 mAb20 or mAb39, followed by 1:3000 anti-mouse HRP-conjugated secondary antibody (GE Healthcare cat. #NA931V). A duplicated gel was Coomassie-stained to show an equal protein loading for each lane ([…]). To compare the mAb20 or mAb39 reactivities to different ZnT homolog, we used commercial HEK293 lysates with lentivirus-mediated over-expression of ZnT1, ZnT2, ZnT3, ZnT4, ZnT7, ZnT8, ZnT10, each is tagged by a Flag tag at the C-terminus (Origene, catalog nos. LY500001, LC412033, LC423751, LC401170, LY415673, LC428544, LC406320, and LC412886). Approximately equal amounts of total protein (5 μg) was loaded to each lane, and then probed with mAb20, mAb39, or anti-FLAG antibody (Origene, catalog no. TA50011-100) as above. The expression levels of ZnT homologs varied with ZnT1 most abundantly expressed.

[2] = biological target: T2, human ZnT3 with C-terminal FLAG tag (human, UniProt Q99726 1-388)
T2 construct: Commercial HEK293 lysate (Origene), SDS-denatured on immunoblots; not shown: C-terminal FLAG octapeptide
T2 sequence (looked up): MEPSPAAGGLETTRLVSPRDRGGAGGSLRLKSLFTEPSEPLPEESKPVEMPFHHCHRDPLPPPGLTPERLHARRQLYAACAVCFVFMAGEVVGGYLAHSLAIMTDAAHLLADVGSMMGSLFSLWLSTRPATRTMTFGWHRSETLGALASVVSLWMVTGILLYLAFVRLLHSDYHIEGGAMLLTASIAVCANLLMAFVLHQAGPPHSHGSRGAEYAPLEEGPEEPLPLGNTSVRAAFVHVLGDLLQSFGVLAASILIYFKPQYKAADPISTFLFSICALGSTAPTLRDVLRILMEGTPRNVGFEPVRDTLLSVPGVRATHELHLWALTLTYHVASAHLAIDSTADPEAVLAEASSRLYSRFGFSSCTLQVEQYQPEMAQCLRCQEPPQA
Text: as §1, §2

[3] = biological target: T3, human ZnT4 with C-terminal FLAG tag (human, UniProt O14863 1-429)
T3 construct: Commercial HEK293 lysate (Origene), SDS-denatured on immunoblots; not shown: C-terminal FLAG octapeptide
T3 sequence (looked up): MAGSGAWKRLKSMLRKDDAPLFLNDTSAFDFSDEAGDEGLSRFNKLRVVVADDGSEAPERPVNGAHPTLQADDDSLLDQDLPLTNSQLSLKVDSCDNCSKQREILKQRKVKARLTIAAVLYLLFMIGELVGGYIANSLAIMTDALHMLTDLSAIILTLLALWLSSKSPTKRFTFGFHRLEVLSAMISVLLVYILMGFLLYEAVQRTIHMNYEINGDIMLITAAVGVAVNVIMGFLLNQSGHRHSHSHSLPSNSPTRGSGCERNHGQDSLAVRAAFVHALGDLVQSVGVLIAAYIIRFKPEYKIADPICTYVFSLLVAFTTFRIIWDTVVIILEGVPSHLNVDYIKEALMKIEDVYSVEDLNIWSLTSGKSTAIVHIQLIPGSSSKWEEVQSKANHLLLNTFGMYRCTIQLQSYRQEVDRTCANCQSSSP
Text: as §1, §2

[4] = biological target: T4, human ZnT10 with C-terminal FLAG tag (human, UniProt Q6XR72 1-485, limits assumed)
T4 construct: Commercial HEK293 lysate (Origene), SDS-denatured on immunoblots; not shown: C-terminal FLAG octapeptide
T4 sequence (looked up): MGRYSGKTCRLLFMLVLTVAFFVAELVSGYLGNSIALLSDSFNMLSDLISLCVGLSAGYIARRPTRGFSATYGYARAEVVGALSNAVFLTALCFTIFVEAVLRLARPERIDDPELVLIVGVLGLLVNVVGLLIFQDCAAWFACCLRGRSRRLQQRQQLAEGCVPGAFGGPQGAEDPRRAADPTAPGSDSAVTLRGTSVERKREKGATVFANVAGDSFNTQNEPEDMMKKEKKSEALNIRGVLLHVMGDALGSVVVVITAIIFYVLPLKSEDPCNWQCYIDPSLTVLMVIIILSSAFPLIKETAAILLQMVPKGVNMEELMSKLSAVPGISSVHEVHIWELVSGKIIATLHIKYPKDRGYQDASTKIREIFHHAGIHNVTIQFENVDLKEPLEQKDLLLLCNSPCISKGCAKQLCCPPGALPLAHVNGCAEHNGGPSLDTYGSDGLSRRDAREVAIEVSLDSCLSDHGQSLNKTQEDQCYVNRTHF
Text: as §1, §2

Measured: binding result

B1: mAb20 (antibody, V domains shown)
VH: QIQLVQSGPELKKPGETVKISCKASGYIFTNYPMHWVKQAPGKGLKWMGWINTYSGVPTHADDFKGRFAFSLETSANSAFLQINNLKNEDTATYFCTRSRITPTGGYAMDYWGQGTSVTVSS
VL: DVVMTQTPLSLPVSLGDQASISCRSSQSLVHSNGNTYLHWYLQKPGQSPNLLISKVSNRFSGVPERFSGSGSGTDFTLKISRVEAEDLGVYFCSQNTHVPWTFGGGTKLEIKR
notes: Mouse hybridoma mAb purified on protein A/G; In some assays it was labelled with Alexa Fluor 488 or terbium cryptate; also called monoclonal antibody mAb20; anti-ZnT8 mAb20
no binding: all assays above

B2: mAb39 (antibody, V domains shown)
VH: QVQLQQPGAELVKPGASVKLSCKASGYSFTTYWMHWVKQRPGQGLEWVGDINPRNGRTNYNEKSKSKATLTVDISSSTVYMQVSSLTSEDSAVYYCAIWSGAMDYWGPGTSVTVSS
VL: B1 VL with A19P, R24K, S32N, N50K, S54Y, E65D, N96T, W101P
notes: Mouse hybridoma mAb purified on protein A/G; In some assays it was labelled with Alexa Fluor 555 or d2; also called monoclonal antibody mAb39; anti-ZnT8 mAb39
no binding: all assays above
